Results from patent US7517652B2, “Methods of diagnosing tumors using the G-protein coupled receptor (GPCR), RAI-3” (Bristol-Myers Squibb Company, priority 2002, dated 2009).

Test system: Flag-RAI-3
Assay: Anti-FLAG immunoprecipitation and anti-phosphotyrosine Western blot of A549 cells transiently transfected with Flag-RAI-3
Format: cell-based, human
Settings: CS-160 1 to 3 hours, EGF 10 nM
Method: FIGS. 26A and 26B illustrate the results of Western Blot analysis of an A549 cell line (Human Lung Carcinoma CCL-185, American Type Culture Collection, Manassas, Va.) transiently transfected with a FLAG RAI-3 construct (described herein). Media on the cells was changed to serum-free and 48 hours port-transfection the cells were treated with cigarette smoke-bubbled media (i.e., CS-160, the equivalent of 160 cigarettes per 500 ml of cell medium) for the periods of time shown (1 hr., 2 hr., and 3 hr.) and with EGF (10 nM) for 5 minutes. Lysates were immuno-precipitated with 2 μg of anti-FLAG M2 antibody (Catalog # F-3165, Sigma, Saint Louis, Mo.) and 40 μl of Protein A. The Protein A/lysate/antibody mixture was washed, aspirated “dry”, and 60 μl of 2×SDS-PAGE sample buffer was added. After heating at 95° C. for 10 minutes, the samples were loaded onto two 4-20% gradient gels, resolved by SDS-PAGE and transferred to nitrocellulose by standard Western Blotting techniques.
The A549 cell line (American Type Culture Collection, Manassas, Va.) was plated in 100 mm petri dishes and transfected at about 75% confluency. […]

B1: epidermal growth factor (protein, UniProt P01133 23-1207, looked up)
Pro-epidermal growth factor: PQHWSCPEGTLAGNGNSTCVGPAPFLIFSHGNSIFRIDTEGTNYEQLVVDAGVSVIMDFHYNEKRIYWVDLERQLLQRVFLNGSRQERVCNIEKNVSGMAINWINEEVIWSNQQEGIITVTDMKGNNSHILLSALKYPANVAVDPVERFIFWSSEVAGSLYRADLDGVGVKALLETSEKITAVSLDVLDKRLFWIQYNREGSNSLICSCDYDGGSVHISKHPTQHNLFAMSLFGDRIFYSTWKMKTIWIANKHTGKDMVRINLHSSFVPLGELKVVHPLAQPKAEDDTWEPEQKLCKLRKGNCSSTVCGQDLQSHLCMCAEGYALSRDRKYCEDVNECAFWNHGCTLGCKNTPGSYYCTCPVGFVLLPDGKRCHQLVSCPRNVSECSHDCVLTSEGPLCFCPEGSVLERDGKTCSGCSSPDNGGCSQLCVPLSPVSWECDCFPGYDLQLDEKSCAASGPQPFLLFANSQDIRHMHFDGTDYGTLLSQQMGMVYALDHDPVENKIYFAHTALKWIERANMDGSQRERLIEEGVDVPEGLAVDWIGRRFYWTDRGKSLIGRSDLNGKRSKIITKENISQPRGIAVHPMAKRLFWTDTGINPRIESSSLQGLGRLVIASSDLIWPSGITIDFLTDKLYWCDAKQSVIEMANLDGSKRRRLTQNDVGHPFAVAVFEDYVWFSDWAMPSVMRVNKRTGKDRVRLQGSMLKPSSLVVVHPLAKPGADPCLYQNGGCEHICKKRLGTAWCSCREGFMKASDGKTCLALDGHQLLAGGEVDLKNQVTPLDILSKTRVSEDNITESQHMLVAEIMVSDQDDCAPVGCSMYARCISEGEDATCQCLKGFAGDGKLCSDIDECEMGVPVCPPASSKCINTEGGYVCRCSEGYQGDGIHCLDIDECQLGEHSCGENASCTNTEGGYTCMCAGRLSEPGLICPDSTPPPHLREDDHHYSVRNSDSECPLSHDGYCLHDGVCMYIEALDKYACNCVVGYIGERCQYRDLKWWELRHAGHGQQQKVIVVAVCVVVLVMLLLLSLWGAHYYRTQKLLSKNPKNPYEESSRDVRSRRPADTEDGMSSCPQPWFVVIKEHQDLKNGGQPVAGEDGQAADGSMQPTSWRQEPQLCGMGTEQGCWIPVSSDKGSCPQVMERSFHMPSYGTQTLEGGVEKPHSLLSANPLWQQRALDPPHQMELTQ
modifications: Pro-epidermal growth factor
tyrosine phosphorylation of recombinant Flag-RAI-3 protein: does not appear to cause tyrosine phosphorylation
